The supplement of paper PMC9112550, “Optimization of the antimicrobial peptide Bac7 by deep mutational scanning” (BMC Biology, 2022)

Each sequence was assayed on Escherichia coli TOP10 (assay: shrunken log2 fold change of peptide-encoding DNA abundance (4.5 h post-induction vs induction); higher = less antimicrobial activity (less host growth inhibition)). Settings: time post-induction: 4.5 h; library: site-saturation at positions 5, 18, 19, 20.
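Further: peptides expressed intracellularly from a pBAD plasmid library in pooled LB shake-flask culture, induced with 0.3% L-arabinose, DNA abundance read by NGS, three biological replicates, DESeq2 with apeglm shrinkage.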

Row | Sequence | shrunken log2 fold change
1 | RRIRARPPRLPRPRPRPRTNPRP | 0.329
2 | RRIRPRPPRLPRPRPRPWCLPRP | -0.514
3 | RRIRMRPPRLPRPRPRPLVEPRP | 2.17
4 | RRIRWRPPRLPRPRPRPDASPRP | 0.364
5 | RRIRHRPPRLPRPRPRPLNYPRP | -0.289
6 | RRIRCRPPRLPRPRPRPIYPPRP | -0.386
7 | RRIRTRPPRLPRPRPRPQLEPRP | 0.341
8 | RRIRGRPPRLPRPRPRPEDIPRP | 0.165
9 | RRIRMRPPRLPRPRPRPAIGPRP | 0.0174
10 | RRIRHRPPRLPRPRPRPAMGPRP | -0.336
11 | RRIRMRPPRLPRPRPRPLPVPRP | 0.872
12 | RRIRLRPPRLPRPRPRPWTRPRP | -0.148
13 | RRIRARPPRLPRPRPRPISQPRP | 0.177
14 | RRIRKRPPRLPRPRPRPGIFPRP | 0.409
15 | RRIRDRPPRLPRPRPRPSCCPRP | 1.57
16 | RRIRDRPPRLPRPRPRPYEKPRP | -0.191
17 | RRIRDRPPRLPRPRPRPVWPPRP | 0.225
18 | RRIRARPPRLPRPRPRPHSFPRP | 0.00388
19 | RRIRFRPPRLPRPRPRPEPVPRP | 0.326
20 | RRIRIRPPRLPRPRPRPIHHPRP | -0.65
21 | RRIRHRPPRLPRPRPRPFSKPRP | 0.0242
22 | RRIRKRPPRLPRPRPRPIEIPRP | -0.0122
23 | RRIRPRPPRLPRPRPRPEEWPRP | -0.0099
24 | RRIRMRPPRLPRPRPRPDDDPRP | -0.00152
25 | RRIRDRPPRLPRPRPRPDIIPRP | 0.221

Row | Sequence | shrunken log2 fold change
26 | RRIRHRPPRLPRPRPRPKDLPRP | -0.0584
27 | RRIRQRPPRLPRPRPRPHLIPRP | -0.0982
28 | RRIRYRPPRLPRPRPRPSQNPRP | -0.874
29 | RRIRMRPPRLPRPRPRPNDFPRP | 0.0282
30 | RRIRHRPPRLPRPRPRPQGPPRP | -0.235
31 | RRIRERPPRLPRPRPRPTYTPRP | -0.756
32 | RRIRHRPPRLPRPRPRPSRRPRP | -0.105
33 | RRIRVRPPRLPRPRPRPSGTPRP | -0.298
34 | RRIRTRPPRLPRPRPRPFCSPRP | 0.207
35 | RRIRLRPPRLPRPRPRPGNQPRP | -0.0104
36 | RRIRYRPPRLPRPRPRPHQRPRP | -0.0288
37 | RRIRTRPPRLPRPRPRPKCFPRP | -0.384
38 | RRIRTRPPRLPRPRPRPYQSPRP | -0.465
39 | RRIRKRPPRLPRPRPRPSQHPRP | 0.109
40 | RRIRMRPPRLPRPRPRPEIGPRP | 2.62
41 | RRIRTRPPRLPRPRPRPYIMPRP | -0.753
42 | RRIRIRPPRLPRPRPRPGWQPRP | 0.449
43 | RRIRPRPPRLPRPRPRPTHVPRP | 0.317
44 | RRIRWRPPRLPRPRPRPNCVPRP | 0.0603
45 | RRIRFRPPRLPRPRPRPANMPRP | 0.321
46 | RRIRYRPPRLPRPRPRPSNSPRP | -1.15
47 | RRIRFRPPRLPRPRPRPPWSPRP | 0.204
48 | RRIRKRPPRLPRPRPRPAPEPRP | 1.26
49 | RRIRFRPPRLPRPRPRPYMSPRP | -0.401
50 | RRIRWRPPRLPRPRPRPWRTPRP | 0.0595

Row | Sequence | shrunken log2 fold change
51 | RRIRGRPPRLPRPRPRPNGMPRP | 0.106
52 | RRIRTRPPRLPRPRPRPIQMPRP | -0.286
53 | RRIRHRPPRLPRPRPRPRCEPRP | 0.149
54 | RRIRKRPPRLPRPRPRPMKQPRP | -0.108
55 | RRIRTRPPRLPRPRPRPLYMPRP | -0.859
56 | RRIRMRPPRLPRPRPRPGKFPRP | 0.0419
57 | RRIRGRPPRLPRPRPRPYEIPRP | -0.132
58 | RRIRCRPPRLPRPRPRPLDLPRP | -0.0926
59 | RRIRMRPPRLPRPRPRPVGPPRP | 0.67
60 | RRIRHRPPRLPRPRPRPWKYPRP | -0.253
61 | RRIRVRPPRLPRPRPRPMVHPRP | 0.141
62 | RRIRDRPPRLPRPRPRPHYTPRP | -0.73
63 | RRIRDRPPRLPRPRPRPGATPRP | 1.01
64 | RRIRYRPPRLPRPRPRPELCPRP | -0.403
65 | RRIRYRPPRLPRPRPRPVVWPRP | -0.00976
66 | RRIRLRPPRLPRPRPRPAKPPRP | 1.22
67 | RRIRRRPPRLPRPRPRPRKCPRP | 0.22
68 | RRIRFRPPRLPRPRPRPTQMPRP | 0.149
69 | RRIRVRPPRLPRPRPRPIVTPRP | -0.214
70 | RRIRDRPPRLPRPRPRPSRGPRP | 0.386
71 | RRIRGRPPRLPRPRPRPKATPRP | 1.52
72 | RRIRKRPPRLPRPRPRPHRIPRP | 0.00291
73 | RRIRYRPPRLPRPRPRPHLCPRP | -0.0639
74 | RRIRARPPRLPRPRPRPTTYPRP | -0.0877
75 | RRIRQRPPRLPRPRPRPCGKPRP | -0.116

Row | Sequence | shrunken log2 fold change
76 | RRIRSRPPRLPRPRPRPFMSPRP | 0.00606
77 | RRIRSRPPRLPRPRPRPFSDPRP | -0.126
78 | RRIRARPPRLPRPRPRPSFFPRP | 0.238
79 | RRIRHRPPRLPRPRPRPCFHPRP | -0.48
80 | RRIRMRPPRLPRPRPRPANQPRP | 0.191
81 | RRIRPRPPRLPRPRPRPNKHPRP | -0.374
82 | RRIRTRPPRLPRPRPRPDRQPRP | -0.0344
83 | RRIRPRPPRLPRPRPRPYDNPRP | -0.415
84 | RRIRERPPRLPRPRPRPDHKPRP | -0.501
85 | RRIRGRPPRLPRPRPRPPKEPRP | 0.176
86 | RRIRYRPPRLPRPRPRPDSWPRP | -0.602
87 | RRIRPRPPRLPRPRPRPISKPRP | -0.306
88 | RRIRDRPPRLPRPRPRPCKFPRP | 0.0155
89 | RRIRYRPPRLPRPRPRPYAPPRP | -0.784
90 | RRIRQRPPRLPRPRPRPTRGPRP | 0.287
91 | RRIRVRPPRLPRPRPRPFMKPRP | -0.737
92 | RRIRFRPPRLPRPRPRPWVFPRP | -0.00336
93 | RRIRIRPPRLPRPRPRPVWLPRP | 0.0726
94 | RRIRERPPRLPRPRPRPWCNPRP | -0.112
95 | RRIRYRPPRLPRPRPRPQHQPRP | -0.304
96 | RRIRYRPPRLPRPRPRPTFCPRP | 0.115
97 | RRIRYRPPRLPRPRPRPGKQPRP | -0.0708
98 | RRIRDRPPRLPRPRPRPMVTPRP | 0.769
99 | RRIRKRPPRLPRPRPRPFMFPRP | -0.0278
100 | RRIRKRPPRLPRPRPRPDRMPRP | 1.19

Row | Sequence | shrunken log2 fold change
101 | RRIRYRPPRLPRPRPRPINLPRP | -0.145
102 | RRIRQRPPRLPRPRPRPYWVPRP | -0.264
103 | RRIRARPPRLPRPRPRPMKSPRP | 0.186
104 | RRIRERPPRLPRPRPRPILKPRP | -0.401
105 | RRIRSRPPRLPRPRPRPSPKPRP | 0.0583
106 | RRIRVRPPRLPRPRPRPHLVPRP | -0.133
107 | RRIRQRPPRLPRPRPRPCMAPRP | -0.117
108 | RRIRCRPPRLPRPRPRPGVYPRP | -0.0723
109 | RRIRDRPPRLPRPRPRPRQMPRP | 0.019
110 | RRIRPRPPRLPRPRPRPRWFPRP | 0.405
111 | RRIRPRPPRLPRPRPRPWRCPRP | 0.199
112 | RRIRYRPPRLPRPRPRPAASPRP | -0.0616
113 | RRIRSRPPRLPRPRPRPMPWPRP | -0.039
114 | RRIRSRPPRLPRPRPRPAEMPRP | 0.125
115 | RRIRHRPPRLPRPRPRPHWFPRP | -0.198
116 | RRIRIRPPRLPRPRPRPGRAPRP | 0.431
117 | RRIRWRPPRLPRPRPRPPRMPRP | 0.348
118 | RRIRQRPPRLPRPRPRPAKSPRP | -0.0281
119 | RRIRARPPRLPRPRPRPRGFPRP | 0.604
120 | RRIRYRPPRLPRPRPRPKKFPRP | -0.0477
121 | RRIRNRPPRLPRPRPRPYLRPRP | -0.0191
122 | RRIRHRPPRLPRPRPRPSSLPRP | -0.153
123 | RRIRMRPPRLPRPRPRPPLPPRP | 0.879
124 | RRIRPRPPRLPRPRPRPDQDPRP | 0.0461
125 | RRIRSRPPRLPRPRPRPSHDPRP | -0.308
